This is an account of results in publication PMC3887213.

Test in all cases: two-hybrid; quantitative YTH (Q-YTH): chlorophenol-red-β-D-galactopyranoside colour change at 540 nm, background (bait + empty pACT2) subtracted, normalised to wild-type RocCOR = 100%
For assay [1], the target named is LRRK2 RocCOR tandem domain R1441H (LexA-BD bait) (human) (UniProt Q5S007).
The target in assay [2] is LRRK2 RocCOR tandem domain R1441C (LexA-BD bait) (human) (UniProt Q5S007).
Assay [3] deals with LRRK2 RocCOR tandem domain R1441G (LexA-BD bait) (human) (UniProt Q5S007).
Sequence of LRRK2 RocCOR tandem domain R1441G (LexA-BD bait) (human) (Q5S007 whole entry R1441G, the tested form may be a part): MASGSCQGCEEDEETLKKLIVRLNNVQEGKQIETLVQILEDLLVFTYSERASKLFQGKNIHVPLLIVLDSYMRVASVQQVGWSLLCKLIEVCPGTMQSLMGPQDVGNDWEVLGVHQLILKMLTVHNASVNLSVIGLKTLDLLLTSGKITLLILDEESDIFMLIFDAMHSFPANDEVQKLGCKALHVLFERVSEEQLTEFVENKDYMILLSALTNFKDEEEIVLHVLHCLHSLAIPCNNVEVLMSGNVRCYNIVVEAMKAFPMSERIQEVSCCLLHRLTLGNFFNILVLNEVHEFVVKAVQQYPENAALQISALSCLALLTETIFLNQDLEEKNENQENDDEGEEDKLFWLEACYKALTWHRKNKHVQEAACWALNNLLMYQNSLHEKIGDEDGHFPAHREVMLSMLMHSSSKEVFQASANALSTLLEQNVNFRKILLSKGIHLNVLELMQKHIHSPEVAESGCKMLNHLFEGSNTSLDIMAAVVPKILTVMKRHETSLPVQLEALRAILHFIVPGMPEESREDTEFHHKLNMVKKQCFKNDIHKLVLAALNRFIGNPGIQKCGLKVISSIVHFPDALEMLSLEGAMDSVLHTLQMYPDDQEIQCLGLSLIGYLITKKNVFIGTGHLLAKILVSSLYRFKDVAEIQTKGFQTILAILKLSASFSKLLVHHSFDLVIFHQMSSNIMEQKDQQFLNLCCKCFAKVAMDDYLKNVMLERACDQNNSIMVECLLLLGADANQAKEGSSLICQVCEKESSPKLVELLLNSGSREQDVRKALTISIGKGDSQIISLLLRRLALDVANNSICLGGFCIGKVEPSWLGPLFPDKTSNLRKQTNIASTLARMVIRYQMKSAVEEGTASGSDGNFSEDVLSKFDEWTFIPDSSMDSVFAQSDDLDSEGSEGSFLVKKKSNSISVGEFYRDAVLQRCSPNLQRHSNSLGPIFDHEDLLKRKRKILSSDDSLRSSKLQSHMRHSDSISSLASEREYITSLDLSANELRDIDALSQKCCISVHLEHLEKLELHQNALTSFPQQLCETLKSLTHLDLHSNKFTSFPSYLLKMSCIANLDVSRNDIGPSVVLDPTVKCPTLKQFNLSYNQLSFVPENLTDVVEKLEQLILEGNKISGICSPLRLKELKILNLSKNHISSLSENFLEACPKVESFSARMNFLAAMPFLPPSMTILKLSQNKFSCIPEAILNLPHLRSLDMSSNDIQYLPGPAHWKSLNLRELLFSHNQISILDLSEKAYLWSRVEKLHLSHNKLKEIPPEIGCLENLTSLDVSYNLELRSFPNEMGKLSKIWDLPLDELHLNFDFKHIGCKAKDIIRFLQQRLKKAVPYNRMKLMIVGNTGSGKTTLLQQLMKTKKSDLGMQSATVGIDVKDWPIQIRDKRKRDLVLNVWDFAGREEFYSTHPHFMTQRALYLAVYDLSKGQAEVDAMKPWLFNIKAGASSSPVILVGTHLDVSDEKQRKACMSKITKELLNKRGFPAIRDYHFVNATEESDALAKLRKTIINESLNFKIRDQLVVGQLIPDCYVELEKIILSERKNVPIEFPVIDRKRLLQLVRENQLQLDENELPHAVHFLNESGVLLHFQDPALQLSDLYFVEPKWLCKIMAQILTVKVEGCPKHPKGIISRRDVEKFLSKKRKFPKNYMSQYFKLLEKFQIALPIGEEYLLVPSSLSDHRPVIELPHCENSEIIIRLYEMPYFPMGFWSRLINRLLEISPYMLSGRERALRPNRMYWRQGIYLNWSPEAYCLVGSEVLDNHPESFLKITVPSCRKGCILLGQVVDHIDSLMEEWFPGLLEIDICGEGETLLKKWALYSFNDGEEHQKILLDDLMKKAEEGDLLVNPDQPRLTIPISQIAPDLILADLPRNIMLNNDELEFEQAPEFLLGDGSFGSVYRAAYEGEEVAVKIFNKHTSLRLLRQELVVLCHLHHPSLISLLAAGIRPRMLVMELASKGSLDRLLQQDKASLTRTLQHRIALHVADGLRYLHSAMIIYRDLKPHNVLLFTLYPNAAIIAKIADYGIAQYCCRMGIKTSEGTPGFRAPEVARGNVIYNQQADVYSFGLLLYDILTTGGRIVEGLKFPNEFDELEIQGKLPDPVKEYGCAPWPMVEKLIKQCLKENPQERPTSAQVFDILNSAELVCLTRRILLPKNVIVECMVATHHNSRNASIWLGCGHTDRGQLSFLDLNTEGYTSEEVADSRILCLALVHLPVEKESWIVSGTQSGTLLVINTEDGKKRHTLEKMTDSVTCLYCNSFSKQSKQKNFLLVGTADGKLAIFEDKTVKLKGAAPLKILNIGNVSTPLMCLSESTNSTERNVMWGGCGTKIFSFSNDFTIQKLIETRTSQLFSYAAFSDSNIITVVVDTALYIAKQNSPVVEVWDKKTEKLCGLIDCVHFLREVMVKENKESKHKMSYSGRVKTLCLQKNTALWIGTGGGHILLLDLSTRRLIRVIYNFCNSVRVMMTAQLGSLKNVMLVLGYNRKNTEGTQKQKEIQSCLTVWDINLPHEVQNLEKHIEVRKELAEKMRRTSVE

Sequence of TUBB C terminus (Phe-317 to the stop codon), GAL4-AD prey (P07437 317-444): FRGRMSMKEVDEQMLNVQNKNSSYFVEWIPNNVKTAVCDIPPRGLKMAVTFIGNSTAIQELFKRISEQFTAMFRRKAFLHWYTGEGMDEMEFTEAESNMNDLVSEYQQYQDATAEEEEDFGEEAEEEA
Sequence of TUBB4 C terminus (Phe-317 to Ala-444), GAL4-AD prey (P04350 317-444): as the sequence (P07437 317-444) above, with N16S, N19S, V49A, E117G, D119F, F120E, G121E, E123A, A124E, E127V counted along it
Sequence of LRRK2 RocCOR tandem domain R1441C (LexA-BD bait) (human) (Q5S007 whole entry R1441C, the tested form may be a part): as the sequence (Q5S007 whole entry R1441G, the tested form may be a part) above, with G1441C counted along it
Sequence of LRRK2 RocCOR tandem domain R1441H (LexA-BD bait) (human) (Q5S007 whole entry R1441H, the tested form may be a part): as the sequence (Q5S007 whole entry R1441G, the tested form may be a part) above, with G1441H counted along it

In the case of “TUBB4 C terminus (Phe-317 to Ala-444), GAL4-AD prey (from UniProt P04350 317-444) (domain or fragment)”, the percent reduction of the interaction against wild-type RocCOR (Q-YTH) came out at 25% in assay [1] and 50% in assay [3]. In assay [2], the percent increase of the interaction against wild-type RocCOR (Q-YTH) amounted to 25%.
For the substance “TUBB C terminus (Phe-317 to the stop codon), GAL4-AD prey (from UniProt P07437 317-444) (domain or fragment)”, the percent reduction of the interaction against wild-type RocCOR (Q-YTH) was determined as 25% in assay [1] and 50% in assay [3]. The percent increase of the interaction against wild-type RocCOR (Q-YTH) in assay [2] was determined as 25%.
